Laboratory results from patent publication US20230140435.

Target: free tubulin (tubulin dimers) of isolated rat cardiomyocytes

| Protein | free:polymerized tubulin ratio (microtubule fractionation assay, western blot, isolated rat cardiomyocytes) |
| --- | --- |
| tubulin tyrosine ligase (TTL) (protein) MYTFVVRDENSSVYAEVSRLLLATGHWKRLRRDNPRFNLMLGERNRLPFGRLGHEPGLVQLVNYYRGADKLCRKASLVKLIKTSPELAESCTWFPESYVIYPTNLKTPVAPAQNGIQPPISNSRTDEREFFLASYNRKKEDGEGNVWIAKSSAGAKGEGILISSEASELLDFIDNQGQVHVIQKYLEHPLLLEPGHRKFDIRSWVLVDHQYNIYLYREGVLRTASEPYHVDNFQDKTCHLTNHCIQKEYSKNYGKYEEGNEMFFKEFNQYLTSALNITLESSILLQIKHIIRNCLLSVEPAISTKHLPYQSFQLFGFDFMVDEELKVWLIEVNGAPACAQKLYAELCQGIVDIAISSVFPPPDVEQPQTQPAAFIKL | Both TTL and TTL-E331Q overexpression increased the amount of free tubulin relative to polymerized microtubules |
| TTL catalytic-dead construct (TTL-E331Q) (protein) MYTFVVRDENSSVYAEVSRLLLATGHWKRLRRDNPRFNLMLGERNRLPFGRLGHEPGLVQLVNYYRGADKLCRKASLVKLIKTSPELAESCTWFPESYVIYPTNLKTPVAPAQNGIQPPISNSRTDEREFFLASYNRKKEDGEGNVWIAKSSAGAKGEGILISSEASELLDFIDNQGQVHVIQKYLEHPLLLEPGHRKFDIRSWVLVDHQYNIYLYREGVLRTASEPYHVDNFQDKTCHLTNHCIQKEYSKNYGKYEEGNEMFFKEFNQYLTSALNITLESSILLQIKHIIRNCLLSVEPAISTKHLPYQSFQLFGFDFMVDEELKVWLIQVNGAPACAQKLYAELCQGIVDIAISSVFPPPDVEQPQTQPAAFIKL | Both TTL and TTL-E331Q overexpression increased the amount of free tubulin relative to polymerized microtubules |
